{
  "source": "patent US20210180049A1",
  "about": "(CHUGAI SEIYAKU KABUSHIKI KAISHA, priority 2013, published 2021)",
  "molecules": {"B1": {"name": "6RNMSC1-2_F02: antibody binding hIL-6R in the presence of kynurenine; heavy chain SEQ ID NO: 32, light chain SEQ ID NO: 33 (antibody, listed as Homo sapiens, V domains shown)", "VH": "QVQLVQSGAEVKKPGSSVKVSCKASGGTFSSYAISWVRQAPGQGLEWMGGIIPIFGTANYAQKFQGRVTITADESTSTAYMELSSLRSEDTAVYYCARDAPVVARPRGAFDIWGQGTMVTVSS", "VL": "DIVMTQTPLSSPVTLGQPASISCRSSQSLVHSDGNTYLSWLQQRPGQPPRLLIHEISNRFSGVPDRFSGSGAGTNFTLKISRVEAEDVGVYYCMQATQFPRTFGQGTKVEIK"}},
  "key": {"[1]": {"target": "T1, human IL-6 receptor (hIL-6R) (Homo sapiens, UniProt P08887)", "T1 sequence (P08887 20-357)": "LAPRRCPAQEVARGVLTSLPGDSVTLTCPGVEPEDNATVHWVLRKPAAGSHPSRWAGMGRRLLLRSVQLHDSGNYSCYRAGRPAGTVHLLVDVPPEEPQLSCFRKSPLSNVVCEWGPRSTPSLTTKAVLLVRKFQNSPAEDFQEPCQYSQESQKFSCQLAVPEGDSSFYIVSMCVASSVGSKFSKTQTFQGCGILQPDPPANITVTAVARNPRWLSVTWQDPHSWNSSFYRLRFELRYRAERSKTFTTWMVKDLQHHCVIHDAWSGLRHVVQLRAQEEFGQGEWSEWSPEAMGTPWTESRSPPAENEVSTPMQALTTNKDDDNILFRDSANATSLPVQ", "assay": "SPR effect of kynurenine concentration on binding to immobilized hIL-6R", "conditions": "1 μg/mL antibody, 180 seconds", "experimental": "Next, the effect of kynurenine concentration on antigen-antibody reaction between 6RNMSC1-2_F02 and hIL-6R was assessed using Biacore T200 (GE Healthcare). The running buffer used was 20 mmol/L ACES, 150 mmol/L NaCl, 0.05% (w/v) Tween 20, pH 7.4. Antigen-antibody reaction between 6RNMSC1-2_F02 and human IL-6R was assayed at 25° C. hIL-6R was immobilized onto Sensor chip CM5 by amine coupling. As an analyte, 1 μg/mL 6RNMSC1-2_F02 diluted with 20 mmol/L ACES, 150 mmol/L NaCl, 0.05% (w/v) Tween 20, pH 7.4, containing kynurenine adjusted to various concentrations were allowed to interact for 180 seconds and changes in the amount of binding were observed."}, "[2]": {"target": "T1, human IL-6 receptor (hIL-6R)", "assay": "SPR dissociation of antibody from immobilized hIL-6R with or without kynurenine", "type": "binding", "conditions": "bound in 100 μmol/L kynurenine, then buffer without kynurenine", "experimental": "The running buffers used were 20 mmol/L ACES, 150 mmol/L NaCl, 0.05% (w/v) Tween 20, pH 7.4, and 20 mmol/L ACES, 150 mmol/L NaCl, 0.05% (w/v) Tween 20, pH 7.4, 100 μmol/L kynurenine. The measurements were performed at 25° C. As an analyte, 5 μg/mL 6RNMSC1-2_F02 diluted with 20 mmol/L ACES, 150 mmol/L NaCl, 0.05% (w/v) Tween 20, pH 7.4, containing 100 μmol/L kynurenine was allowed to interact for 180 seconds with hIL-6R immobilized onto Sensor chip CM5 by amine coupling. Then, the mode of the dissociation of hIL-6R was observed under each running buffer condition. […] Specifically, the regulation by kynurenine on binding of the antibody to hIL-6R was confirmed to be reversible."}, "[3]": {"target": "T2, hIL-6R (Homo sapiens, UniProt P08887)", "T2 sequence (P08887 20-357 limits assumed)": "T1 sequence (P08887 20-357)", "assay": "IgG ELISA for hIL-6R binding under conditions of Table 38", "conditions": "IgG 2.5 μg/mL", "experimental": "The selected six types of antibodies and the 6RNMSC1-2_F02 antibody were subjected to ELISA under the conditions indicated in Table 38.\nFirst, a StreptaWell 96 microtiter plate (Roche) was coated with 100 μL of TBS containing biotin-labeled hIL-6R at room temperature for one or more hours. After removing biotin-labeled hIL-6R that are not bound to the plate by washing each well of the plate with TBST, the wells were blocked with 250 μL of Blocking Buffer (2% skim milk/TBS) for one or more hours. Blocking Buffer was removed from each well. 100 μL each of the purified IgGs prepared to 2.5 μg/mL using TBS under the conditions described in Table 38 were added to the wells, and the plate was allowed to stand at room temperature for one hour to allow each IgG to bind to biotin-labeled hIL-6R in each well. TBST was prepared to make the final concentrations shown in Table 38, and each well was washed with the prepared TBST. HRP-conjugated anti-human IgG antibody (BIOSOURCE) diluted with TBS containing the same small molecules was added to each well. The plate was incubated for one hour. After washing with TBST prepared to the final concentrations shown in Table 38, the chromogenic reaction of the solution in each well added with TMB single solution (ZYMED) was terminated by adding sulfuric acid. Then, the color development was measured by absorbance at 450 nm."}, "[4]": {"target": "T1, human IL-6 receptor (hIL-6R)", "assay": "IgG ELISA for hIL-6R binding under small molecule conditions of Table 12", "conditions": "IgG 2.5 μg/mL", "experimental": "Three types of obtained antibodies 6RNMSC1-2_F02, 6RNMSC1-3_G02, and GC413 were subjected to ELISA under the nine conditions shown in Table 12. The antigen used was biotin-labeled hIL-6R.\nFirst, a StreptaWell 96 microtiter plate (Roche) was coated with 100 μL of PBS containing biotin-labeled hIL-6R at room temperature for one hour or longer. […] 100 μL of each of the purified IgGs prepared at 2.5 μg/mL using Sample Buffer containing small molecules at the final concentrations shown in Table 12 were added to each well, and the plate was let still at room temperature for one hour to allow each IgG to bind to biotin-labeled hIL-6R present in each well. After washing with Wash Buffer containing small molecules at the final concentrations shown in Table 12, HRP-conjugated anti-human IgG antibody (BIOSOURCE) diluted with Sample Buffer containing the same small molecules was added to each well and the plate was incubated for one hour. After washing with Wash Buffer containing respective small molecules, the chromogenic reaction of TMB single solution (ZYMED) added in each well was terminated by adding sulfuric acid. Then, the color development was measured by absorbance at 450 nm."}},
  "data": [
    {"molecule": "B1", "values": [
      {"measurement": "effect of kynurenine concentration on the amount of binding to hIL-6R", "setting": "[1]", "result": "the higher the concentration of kynurenine acting as a switch, the greater the amount of 6RNMSC1-2_F02 binding to hIL-6R"},
      {"measurement": "dissociation from hIL-6R when kynurenine is no more present", "setting": "[2]", "result": "rapidly dissociating hIL-6R"},
      {"measurement": "absorbance under condition 2 or 3 as compared to condition 1 (kynurenine-specific binding to biotin-labeled hIL-6R)", "setting": "[3]", "result": "markedly low"},
      {"measurement": "absorbance under condition 9 (no small molecule) compared to condition 8 (cocktail of all small molecules)", "setting": "[4]; absorbance at 450 nm", "result": "significantly lower"},
      {"measurement": "small molecule in whose presence the antibody binds hIL-6R", "setting": "[4]; conditions 1-9 of Table 12, absorbance at 450 nm", "result": "binds to the antigen hIL-6R in the presence of kynurenine"}
    ]}
  ]
}
